Data taken from the supplement of paper PMC12764529.
± gives the half width of the 95% confidence interval.

Columns and labels:
[1] = folding stability dG unfold (combined trypsin and chymotrypsin); higher = more stable
Method in brief: (§1)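 Sequencing followed digestion of designed mini-proteins with trypsin and chymotrypsin, each at 11 concentrations in threefold dilutions together with a no-protease condition. The mini-proteins were under 80 residues, had no cysteine, sat in a PA-tagged cDNA display construct, and were kept only if AlphaFold2 dimer inter-PAE was above 15. From the counts, Bayesian fitting gave K50, and unfolding free energy was derived against a sequence-predicted unfolded-state K50 and a shared folded-state K50, per protease or combined.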

[2] = folding stability dG unfold from trypsin proteolysis; higher = more stable
Method in brief: as §1

[3] = folding stability dG unfold from chymotrypsin proteolysis; higher = more stable
Method in brief: as §1

Row | Sequence | folding stability dG unfold [1] | folding stability dG unfold [2] | folding stability dG unfold [3]
1 | SAMIEIEAVFPPNVSLEEAVEAVKAEIESKGFEILEVKVEKLPNGEVLVRAVVKVKPEMPPEEIKKLAESAG [r14_110_TrMRF] | 2.07 ± 0.19 kcal/mol | 1.5 ± 0.06 kcal/mol | 2.44 ± 0.2 kcal/mol
2 | SAGGSAGGSAGKKKVLMTVDEIEKKLGKKIKPGSLVLVEVENGKVKKIEIFDVKKKPKKKSAGGSAGGSAGG [r11_616_TrROS_Hall] | 1 ± 0.21 kcal/mol | 0.943 ± 0.09 kcal/mol | 1.07 ± 0.076 kcal/mol
3 | SAGGSIKIDEIEPDPPGDRVKVKMDIPVPMYDPNGKPKEPMPIKITAEARVDPENGELAINMDIEMSAGGSA [r2_220_TrROS] | 1.67 ± 0.53 kcal/mol | 2.73 ± 0.41 kcal/mol | 1.4 ± 0.33 kcal/mol
4 | SAGFTIEIENEDGKKITFRFPGWKIEIYPKDGIIMMRYPEENMSIMIKVDPNKIKIQVYDGGKWRWFPISAG [r5_786_TrROS] | 3.69 ± 0.47 kcal/mol | 2.86 ± 0.13 kcal/mol | 3.92 ± 0.08 kcal/mol
5 | SAGSIPELIREAFPSKVDRVEVTTEKLPNGTTKTTIKVYVDDPEVAERLAKEINELSGEPLENLTVTEESAG [r5_542_JUSTAS] | 0.652 ± 0.13 kcal/mol | 0.0676 ± 0.11 kcal/mol | 0.981 ± 0.039 kcal/mol
6 | SAGGGWKPIGKEEITLPFGIKVTVDIWTWPDGMIMIMIEIEIPVPPPKPPVPPMSPEDMKDMNEDNGSAGGS [r16_6_TrROS] | 3.2 ± 0.43 kcal/mol | 2.06 ± 0.14 kcal/mol | 3.8 ± 0.24 kcal/mol
7 | SAGGSAGGGNVYVKIEIYPYDPKNGEPQEQDITIPFETKEDAKDEIEKLLNMPNGMWIKIEVVDSAGGSAGG [r7_0_TrROS] | 1.47 ± 0.12 kcal/mol | 1.31 ± 0.053 kcal/mol | 1.47 ± 0.035 kcal/mol
8 | SAGGSVRVETEFERLPDGPIVVRVRITLPNGETLEFTAVYYPEPSGIPMFVPEPVPPNAIEGIDIKVSAGGS [r16_95_TrMRF] | 2.11 ± 0.16 kcal/mol | 2.55 ± 0.09 kcal/mol | 1.78 ± 0.047 kcal/mol
9 | SAGGMTITIPVTESGSLEEALALAERVAEEARAAGLEEVTITVTVYDPANGEVLYTKTRRVPVRPEASAGGS [r8_33_JUSTAS] | 2.21 ± 0.031 kcal/mol | 2.03 ± 0.032 kcal/mol | 2.274 ± 0.0077 kcal/mol
10 | SAGGSAGGSTALVYKNGVTVTFPVFFPDTAPAVVTLSIPSPEEAAAAVAALRAAGHAVTVEPLASAGGSAGG [r6_872_JUSTAS] | 1.29 ± 0.031 kcal/mol | 0.96 ± 0.012 kcal/mol | 1.48 ± 0.048 kcal/mol
11 | SAMKAEVYILVYDKNGKLIAKIPIKAEEVLEDPEKFLETVKTVVEEFSGIGVKLKIYFPSTGKEVEIEASAG [r14_972_TrMRF] | 3.6 ± 0.23 kcal/mol | 4.2 ± 0.65 kcal/mol | 3.35 ± 0.045 kcal/mol
12 | NKRIKIFIGGDDPSMAEQIQQWLQDNGYNVEVHVFTSPEDMKKAREWAEQNDIVIVIQVPPPPPKDPGDNNS [r1_497_TrROS] | 3.3 ± 0.074 kcal/mol | 2.48 ± 0.12 kcal/mol | 3.487 ± 0.024 kcal/mol
13 | SAGGSAPEDNYVVLIFIDISIEWKPKYDEDNGKNRIEFEWKLEIDIPTIVLPPDDPEAKDLLEDLLSAGGSA [r15_470_TrROS] | 2.94 ± 0.12 kcal/mol | 2.29 ± 0.067 kcal/mol | 3.35 ± 0.14 kcal/mol
14 | SAGGSAGGSMEELPEGAELIREEDGVAVVRNENGELLVVRRVDGKLEVRRFPPGMSIEEALAKSAGGSAGGS [r12_605_TrROS_Hall] | 3.05 ± 0.045 kcal/mol | 2.95 ± 0.064 kcal/mol | 3.07 ± 0.04 kcal/mol
15 | SQTIRLELKNPDGRKIRIEIPVQRNPGNGYYYVSVKIEYYDPNGKPKERPITAPFNSPEDAEDQAREALRSA [r9_337_TrROS] | 1.69 ± 0.28 kcal/mol | 1.63 ± 0.12 kcal/mol | 2.06 ± 0.16 kcal/mol
16 | SSSSEVKVERYPDSYLVTITIREGDKEVGTLSYPLNGSLTVEEVLEEVQKRYPDLPVSFSTSVPVPPPAPSA [r9_364_JUSTAS] | 3.8 ± 0.13 kcal/mol | 3.46 ± 0.11 kcal/mol | 3.88 ± 0.073 kcal/mol
17 | SAGGSAGGSAGWGWISVSITFEMEHYDEDGKPKHEHPMPMTIQIPVVRVDPKNGKLEPMPSAGGSAGGSAGG [r17_413_TrROS] | 2.24 ± 0.2 kcal/mol | 1.83 ± 0.095 kcal/mol | 2.58 ± 0.065 kcal/mol
18 | SASPWIQKLAEEIADELAKENGWEEVKFTVTLPIRMPMYRYDPNGKKEPHDMWMWIKFEVTARVPPGDPSAG [r14_232_TrROS] | 2.14 ± 0.24 kcal/mol | 2.28 ± 0.061 kcal/mol | 2.01 ± 0.18 kcal/mol
19 | SAGKIEITVKPDGTVIIKVTVEVDGKKLELTIEVPPEMTIEEIIEKLKELAEELGVEKVEVEIVPLPPSAGG [r19_31_TrROS_Hall] | > 6 kcal/mol | 3.9 ± 0.85 kcal/mol | 2.9 ± 0.45 kcal/mol
20 | SAGGKYTFTPAPPNSESEVVKKAEELKKKLAEEPGVDKKIEIEIKPSPDGSLTIKVTFSTGTYDAAASAGGS [r16_356_JUSTAS] | 0.942 ± 0.12 kcal/mol | 0.514 ± 0.027 kcal/mol | 1.32 ± 0.094 kcal/mol
21 | SAGGSAAIPLEFELPNGERVTVYYDPETGLFTVEVEVRFGNEKGEPPEVRFRFEVDSLVDLLDFLASAGGSA [r15_31_TrMRF] | 3.49 ± 0.093 kcal/mol | 2.51 ± 0.13 kcal/mol | 3.88 ± 0.039 kcal/mol

Row | Sequence | folding stability dG unfold [1] | folding stability dG unfold [2] | folding stability dG unfold [3]
22 | SMFRPFPLPDGRPAYDFIIPGLELASSFFPETGRPVLVLRPGGRLGAAPLFAADLDVLFSRPPLVAVEPDSA [r9_205_TrMRF] | 0.999 ± 0.14 kcal/mol | 0.634 ± 0.11 kcal/mol | 1.37 ± 0.17 kcal/mol
23 | SAGGSAEVELVKVEVNPDGPYVKATFRIPGGGDVAVLVFDPDRPNTARLIVRPPNNEPIAEIELPLSAGGSA [r15_974_TrMRF] | 1.65 ± 0.2 kcal/mol | 1.52 ± 0.046 kcal/mol | 1.83 ± 0.28 kcal/mol
24 | SMPPEDPGELTLVVPDTRNVTVTLPVPVPPEARVLVTFSDGRRVEAPAGTELTFTIPPGRPYVIRVEVYASA [r9_79_TrMRF] | 1.6 ± 0.076 kcal/mol | 1.2 ± 0.027 kcal/mol | 1.86 ± 0.085 kcal/mol
25 | SAGKLVLKPGETVEIGDMTIHFHPDGRVSATFPDGRSAAIRVTVDTDTDVVGFEFVEEHPDVGHTDAPGSAG [r5_33_TrMRF] | 1.47 ± 0.11 kcal/mol | 1.74 ± 0.1 kcal/mol | 1.12 ± 0.057 kcal/mol
26 | SAGGSAGGSAGKVTLTIPFTNEDGTKYIAEFTFDELEVEEDVEIKIVSLGENFDLVLKPESAGGSAGGSAGG [r11_733_TrMRF] | 1.63 ± 0.1 kcal/mol | 1.47 ± 0.069 kcal/mol | 1.67 ± 0.041 kcal/mol
27 | SAGGEVRLRLEAELLPDGTLVLRGRVEVRVGDRVFEFEFELVLRLEPVPPPPAPARPLLIPERLLDASAGGS [r8_269_TrMRF] | 2.13 ± 0.12 kcal/mol | 1.47 ± 0.098 kcal/mol | 2.4 ± 0.065 kcal/mol
28 | SAGGSAGGSAGSLELEFEFPKDTPLDKIIEELKKLIPEKDPKIEILKVEEKEGGLWIKARVSSAGGSAGGSA [r18_360_TrMRF] | 3.26 ± 0.05 kcal/mol | 3.55 ± 0.085 kcal/mol | 3.11 ± 0.042 kcal/mol
29 | SAGGSAVPTVRATFRYPDGLVAELEVPVLPDGTPRVVLRVGGVEREVSLEELARLPPEFELVSVDPSAGGSA [r2_431_TrMRF] | 0.826 ± 0.072 kcal/mol | 0.517 ± 0.073 kcal/mol | 0.996 ± 0.087 kcal/mol
30 | SAGGSLPELLKLAKELAKKLGAKDLTAKESGEITIKSPENITITVSTEDGEPVVTINNTSTSSTIPLSAGGS [r16_296_JUSTAS] | -0.18 ± 0.26 kcal/mol | -0.36 ± 0.32 kcal/mol | -0.185 ± 0.22 kcal/mol
31 | SAGGSAGGSAGKPITADEVAERVARRLRELFGPDYDINVKVVKVLPGDYVLVDVEITGDLSAGGSAGGSAGG [r11_153_TrMRF] | 2.28 ± 0.044 kcal/mol | 2.27 ± 0.032 kcal/mol | 2.287 ± 0.021 kcal/mol
32 | SAGGNIKIEVYRSPDYYMIRIKLDGKPYEIPIDPGNTEEEAAEQALDNLQEKFPDKPIKIKDVEIYPYSAGG [r13_884_TrROS] | 0.566 ± 0.28 kcal/mol | 0.473 ± 0.22 kcal/mol | 0.513 ± 0.42 kcal/mol
33 | SAGGSAGGSAGMEISTKTLPGDKYELTITLPDSKGTPITVTITFTSEEEAKKKLEEIIKKSAGGSAGGSAGG [r11_819_JUSTAS] | 2.27 ± 0.084 kcal/mol | 1.29 ± 0.068 kcal/mol | 2.7 ± 0.11 kcal/mol
34 | SAGGSAGGMKEITITNENGETLRIKVFNKETGEEKEIEFPAGMSLEDILKKLKEEEGLEVEIEPSAGGSAGG [r6_202_TrROS_Hall] | 3.01 ± 0.16 kcal/mol | 2.27 ± 0.14 kcal/mol | 3.16 ± 0.071 kcal/mol
35 | SAGGSAGGSAGGKTYKITVSSGDTYLTISIELPDGLVLTYKITPNSIEVEIKPLKDFNESAGGSAGGSAGGS [r10_1169_TrMRF] | 5.51 ± 0.43 kcal/mol | 3.42 ± 0.19 kcal/mol | 5.3 ± 0.2 kcal/mol
36 | SAGAKVTVEPVKVEPLPNGEVKVTAKVTIYDPNTTKPTEIEVTGTYKLHPNGKPVKPETIVAEAIKKAASAG [r5_604_TrMRF] | 0.459 ± 0.14 kcal/mol | 0.426 ± 0.038 kcal/mol | 0.337 ± 0.17 kcal/mol
37 | SKKIKLSEEMKEAIKEAVKKAKPGEKVEITIKLKDGSIIKIEIYPDGTIKISVFDKNGKKIKEFEIKIKPSA [r9_132_TrROS_Hall] | 1.81 ± 0.44 kcal/mol | 1.43 ± 0.075 kcal/mol | 2.59 ± 0.12 kcal/mol
38 | SAGGSDNKPFRIEPTGVDSVEANPDGMVEIEWRFRLPNGYVLTWRETINPKNGKPSIEPTLVPPGESAGGSA [r2_321_TrROS] | 0.902 ± 0.085 kcal/mol | 0.816 ± 0.079 kcal/mol | 0.722 ± 0.18 kcal/mol
39 | SAGGSSGSIDRVELLSFDPEKGIALVRFPSFGSIQVIPIPPGKNSLKVKVINKNGEPFEFTFSLPLSAGGSA [r2_132_TrMRF] | 3 ± 0.07 kcal/mol | 2.82 ± 0.082 kcal/mol | 3.1 ± 0.043 kcal/mol
40 | SAGGSAGGSAGMDIDILTETEVTRYPDGTVVTTTTTRDSSGEVLSTTTTTTTVTPATPAASAGGSAGGSAGG [r11_452_JUSTAS] | 2.47 ± 0.069 kcal/mol | 2.24 ± 0.15 kcal/mol | 2.6 ± 0.057 kcal/mol
41 | SAGGSAGGSAGGGITIKGPGSVTVTVPASDVASISVDPATGTVTVEIPATGTTLTVPPASAGGSAGGSAGGS [r10_200_JUSTAS] | 0.604 ± 0.07 kcal/mol | 1.03 ± 0.037 kcal/mol | 0.238 ± 0.033 kcal/mol
42 | SAGMISPEEIAKRLKAGEPVEIYLPDPAEKEALLAELQKLLGLSEEELKEIFAKMKFTEIPATDPRLLASAG [r5_368_JUSTAS] | 1.67 ± 0.046 kcal/mol | 1.16 ± 0.045 kcal/mol | 2.03 ± 0.058 kcal/mol
